From US7326418B2, “Identification of novel factors that block programmed cell death or apoptosis by targeting JNK” (University of Chicago, priority 2001, dated 2008)
“Also recorded” adds a separate entry of the source.

T1: JNKK2/MKK7 (Homo sapiens, UniProt O14733, Q133P/Q94H)
T1 construct: expressed in transfected cells; host or cells: HEK-293, TNFα-treated or untreated; anti-FLAG immunoprecipitate
T1 sequence (O14733 1-401 Q94H/Q133P limits assumed): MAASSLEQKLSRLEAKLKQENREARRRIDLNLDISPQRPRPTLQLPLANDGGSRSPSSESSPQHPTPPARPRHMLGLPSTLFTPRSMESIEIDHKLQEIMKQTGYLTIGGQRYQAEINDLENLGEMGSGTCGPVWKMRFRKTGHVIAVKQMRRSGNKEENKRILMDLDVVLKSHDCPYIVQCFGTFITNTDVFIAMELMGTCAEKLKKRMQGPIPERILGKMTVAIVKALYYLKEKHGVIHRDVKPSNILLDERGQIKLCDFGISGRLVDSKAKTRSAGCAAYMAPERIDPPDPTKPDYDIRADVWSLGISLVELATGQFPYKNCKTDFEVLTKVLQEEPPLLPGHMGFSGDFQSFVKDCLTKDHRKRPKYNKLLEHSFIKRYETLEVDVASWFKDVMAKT

B1: Gadd45β: purified recombinant His6-tagged Gadd45β protein; also used generically for the recombinant Gadd45β proteins (protein, UniProt O75293 1-160, looked up)
Growth arrest and DNA …: MTLEELVACDNAAQKMQTVTAAVEELLVAAQRQDRLTVGVYESAKLMNVDPDSVVLCLLAIDEEEEDDIALQIHFTLIQSFCCDNDINIVRVSGMQRLAQLLGEPAETQGTTEARDLHCLLVTNPHTDAWKSHGLVEVASYCEESRGNNQWVPYISLQER
modifications: His6 tag
notes: purified recombinant His6-tagged Gadd45β protein; also used generically for the recombinant Gadd45β proteins
B2: His6-Gadd45β: human full-length Gadd45β purified from E. coli as His6-tagged protein (protein, UniProt O75293 1-160, looked up)
chain: B1 Growth arrest and DNA …
modifications: full-length His6 tag
notes: human full-length Gadd45β purified from E. coli as His6-tagged protein
B3: GST-Gadd45β: full-length murine Gadd45β directly fused to GST, purified from E. coli (protein)
chain: MTLEELVASDNAVQKMQAVTAAVEQLLVAAQRQDRLTVGVYEAAKLMNVDPDSVVLCLLAIDEEEEDDIALQIHFTLIQSFCCDNDIDIVRVSGMQRLAQLLGEPAETLGTTEARDLHCLLVTNCHTDSWKSQGLVEVASYCEESRGNNQWVPYISLEER
modifications: left off: a dimerising Fc or GST
notes: full-length murine Gadd45β directly fused to GST, purified from E. coli

Target: T1, JNKK2/MKK7
Assay: Kinase assay of immunoprecipitated FLAG-JNKK2/MKK7 (GST-JNK1 substrate) pre-incubated with recombinant Gadd45β proteins or peptides
Type: biochemical
Conditions: for inhibition of JNKK2/MKK7 activity (GST-JNK1 phosphorylation): FLAG-JNKK2 from 293 cells, 10 min pre-incubation with increasing concentrations of recombinant protein
Description: Next, the functional consequences, in vitro, of the physical interactions of Gadd45β with kinases in the JNK pathway were assessed. Murine and human, full-length Gadd45J3 proteins were purified from E. coli as GST-Gadd45β and His6-tagged Gadd45β (His6 disclosed as SEQ ID NO: 46), respectively, according to standard procedures. Prior to employing these proteins in in vitro assays, purity of all recombinant polypeptides was assured by >98%, by performing Coomassie blue staining of SDS polyacrylamide gels. Then, the ability of these proteins, as well as of control GST and His6-EF3 (His6 disclosed as SEQ ID NO: 46)proteins, to inhibit kinases in the JNK pathways was monitored in vitro. FLAG-tagged JNKK2, JNKK1, MKK3, and ASK1 were immunoprecipitated from transiently transfected 293 cells using anti-FLAG antibodies and pre-incubated for 10 minutes with increasing concentrations of recombinant proteins, prior to the addition of specific kinase substrates (i.e. GST-JNK1 with JNKK1 and JNKK2; GST-p38[…] with MKK3; GST-JNNK1 or GST-JNKK2 with ASK1). […] These findings indicate that, upon binding to Gadd45β, JNKK2 is effectively inactivated.
A question was whether Gadd45β inhibited active MKK7, in vitro. FLAG-MKK7 was immunoprecipitated from TNFα-treated or untreated 293 cells, and kinase assays were performed in the presence of purified His6-Gadd45β (His6 disclosed as SEQ ID NO: 46), GST-Gadd45β, or control proteins (FIG. 28d; see also FIG. 28g). […] Consistent with the in vivo findings (FIG. 27), the inhibitory activity of Gadd45β was specific. […] Indeed, the effects of Gadd45β on MKK7 phosphorylation by TNFα may be due inhibition of the MKK7 ability to auto-phoshorylate and/or to serve as substrate for upstream kinases. Altogether, the findings identify MKK7 as a target of Gadd45β, and of NF-[…]B, in the JNK cascade. Of interest, MKK7 is a selective activator of JNK, and its ablation abolishes JNK activation by TNFα. Thus, blockade of MKK7 is sufficient on its own to explain the effects of Gadd45β on JNK signaling—i.e. its specific and near-complete suppression of this signaling.
Active MKK7 was immunoprecipitated from TNFα-activated 293 cells and MKK7 kinase assays were performed using GST-JNK1 substrates and pure recombinant Gadd45β polypeptides (FIG. 37B; a schematic diagram representing the Gadd45βpolypeptides used is shown in FIG. 37A). […] MKK7 kinase assays were performed as in FIG. 37B, except that pure synthetic Gadd45, peptides (whose sequences are shown in FIG. 37C) were used instead of pure recombinant Gadd45β proteins. The amino acid region between amino acids 58 and 77 of Gadd45βis used for the Gadd45β-mediated inhibition of MKK7. […]

Molecule	JNKK2 auto-phosphorylation (in vitro)	inhibition of JNKK2/MKK7 activity (GST-JNK1 phosphorylation)
B1	inhibited	
B2		blocked GST-JNK1 phosphorylation by MKK7, in a dose-dependent manner; also recorded: effectively suppressed
B3		blocked GST-JNK1 phosphorylation by MKK7, in a dose-dependent manner; also recorded: effectively suppressed
